{"source": "paper PMC7485985", "about": "(2020)", "binders": {"B1": {"name": "GST-OsGSK2 (enzyme)", "chain": "MDQPAPAPEPMLLDAQPPAAVACDKKQQEGEAPYAEGNDAVTGHIISTTIGGKNGEPKRTISYMAERVVGTGSFGIVFQAKCLETGETVAIKKVLQDRRYKNRELQLMRAMDHPNVISLKHCFFSTTSRDELFLNLVMEYVPETLYRVLKHYSNANHRMPLIYVKLYMYQLFRGLAYIHTVPGVCHRDVKPQNVLVDPLTHQVKLCDFGSAKTLVPGEPNISYICSRYYRAPELIFGATEYTTSIDIWSAGCVLAELLLGQPLFPGESAVDQLVEIIKVLGTPTREEIRCMNPNYTEFRFPQIKAHPWHKVFHKRMPPEAIDLASRLLQYSPSLRCTALDACAHPFFDELREPNARLPNGRPFPPLFNFKHELANSSQELISRLIPEHVRRQATHNFFNTGS"}}, "target": "MBP-OsMYC2 (rice, UniProt Q336P5 1-699)", "sequence (Q336P5 whole entry)": "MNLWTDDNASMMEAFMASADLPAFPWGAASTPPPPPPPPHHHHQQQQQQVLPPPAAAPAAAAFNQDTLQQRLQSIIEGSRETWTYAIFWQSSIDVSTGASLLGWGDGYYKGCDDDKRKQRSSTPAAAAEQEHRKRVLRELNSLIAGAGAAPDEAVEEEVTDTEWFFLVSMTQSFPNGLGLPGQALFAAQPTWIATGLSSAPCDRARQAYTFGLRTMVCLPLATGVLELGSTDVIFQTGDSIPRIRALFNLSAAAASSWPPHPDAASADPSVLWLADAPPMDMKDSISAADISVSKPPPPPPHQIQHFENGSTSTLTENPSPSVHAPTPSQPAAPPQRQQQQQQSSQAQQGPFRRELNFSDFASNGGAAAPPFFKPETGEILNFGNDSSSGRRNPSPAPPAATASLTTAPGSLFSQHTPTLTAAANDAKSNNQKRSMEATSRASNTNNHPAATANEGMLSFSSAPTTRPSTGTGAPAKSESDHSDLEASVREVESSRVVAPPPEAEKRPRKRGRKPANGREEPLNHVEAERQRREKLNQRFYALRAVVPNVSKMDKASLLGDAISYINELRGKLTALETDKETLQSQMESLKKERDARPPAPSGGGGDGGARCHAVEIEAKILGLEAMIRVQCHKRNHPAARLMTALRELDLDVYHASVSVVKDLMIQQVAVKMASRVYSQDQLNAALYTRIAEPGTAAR", "test": "SPR"}
{"binder": "B1", "values": [{"measurement": "Kd", "result": 40.4, "unit": "nM"}]}
